# According to US20060246046A1 (published 2006):
# T1: factor XIIIa (human, UniProt P00488 39-732)
# T1 sequence (looked up): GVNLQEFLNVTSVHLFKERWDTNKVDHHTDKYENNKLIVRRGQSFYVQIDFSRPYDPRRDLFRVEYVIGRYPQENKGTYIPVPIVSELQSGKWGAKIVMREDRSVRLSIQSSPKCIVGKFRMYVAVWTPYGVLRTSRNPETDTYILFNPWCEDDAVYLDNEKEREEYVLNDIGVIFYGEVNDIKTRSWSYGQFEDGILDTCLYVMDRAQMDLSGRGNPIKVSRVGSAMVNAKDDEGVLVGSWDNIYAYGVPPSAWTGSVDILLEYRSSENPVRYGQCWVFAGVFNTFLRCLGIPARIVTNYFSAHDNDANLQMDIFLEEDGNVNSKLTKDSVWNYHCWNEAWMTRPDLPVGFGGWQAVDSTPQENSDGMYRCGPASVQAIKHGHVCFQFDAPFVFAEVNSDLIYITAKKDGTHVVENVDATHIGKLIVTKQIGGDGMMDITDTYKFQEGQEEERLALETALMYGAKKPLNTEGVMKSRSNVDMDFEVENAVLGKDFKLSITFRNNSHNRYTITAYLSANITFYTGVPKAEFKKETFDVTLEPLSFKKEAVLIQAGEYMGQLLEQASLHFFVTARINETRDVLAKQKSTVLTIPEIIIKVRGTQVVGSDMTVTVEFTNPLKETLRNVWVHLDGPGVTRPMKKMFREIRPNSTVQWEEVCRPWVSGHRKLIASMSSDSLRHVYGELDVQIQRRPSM
# B1: 20 amino acid-long tridegin peptide SEQ ID NO.25 (peptide)
# peptide: Ac-PMDDIYQRPVEFPNLPLKPR-NH2
# B2: 20 amino acid-long tridegin peptide SEQ ID NO.24 (peptide)
# peptide: Ac-IKPMDDIYQRPVEFPNLPLK-NH2
# B3: DDIYQRPVEFPNLP (SEQ ID No. 88) (14mer) (peptide)
# peptide: DDIYQRPVEFPNLP
# B4: 20 amino acid-long tridegin peptide SEQ ID NO.26 (peptide)
# peptide: Ac-DDIYQRPVEFPNLPLKPREE-NH2
# How the values were obtained:
# factor XIIIa [1] = target: T1, factor XIIIa; test: cell-based or functional assay
# factor XIIIa [2] = target: T1, factor XIIIa; test: cell-based or functional assay; remark: listed apart in the source
Binder,"Relative inhibitory effect (%) at 7.27 µM, recombinant tridegin = 100% (factor XIIIa [1])","IC50, Berichrom assay, HPLC-purified peptide (factor XIIIa [2])","IC50, Berichrom test, purified peptide (factor XIIIa [2])"
B1,42.1%,4 µM,–
B2,43.5%,7 µM,–
B3,–,–,~280 µM
B4,35.6%,5 µM,–
